# Results reported in patent US20110293610A1 (published 2011).
# Where a chain is given by its changes, count along the chain named.
# B1: I083G03 (scFv)
# scFv: QVQLVQSGAELKQPGTSVKVSCKASGYSFSSYGVTWVRQAPGQGLEWMGWVSGNRGNTQYAQKFQDRVRMTTDTSTSTAYMELRSLRPDDTDVYFCARVGIKAAAVDNFEYWGRGTTVTVSSGGGGSGGGGSGGGGSAQSVLTQPPSASGTPGQRVTITCSGSSSNIGDYYVNWYQQVSGTTPKLIIYRDDQRPSGVPDRFSGSKSGASASLAISGLRSEDEANYFCAAWDDSLREFAFGTGTKVTVLG
# B2: I080A08 (scFv)
# scFv: QVTLKESGGDLVQPGGSLRLSCAASGLTFMSYAMTWVRQAPGKGLEWVSSISGSGDNTYYGDSVRGRFTISRDNSKNTLFLQLNSLRAEDTAFYYCAKVHSTGYAFENWGRGTLVTVSSGGGGSGGGGSGGGGSAQSVLTQPPSVSGAPGQRVTISCTGSSSNIGAGYNVHWYQQLPGTAPRLLISSNTNRPSGVPDRFSGSKSGTSASLAITGLQAEDEADYYCQSYDSSLSGFVFGTGTKVTVLG
# B3: I084C11 (scFv)
# scFv: GVQLEESGAEVKKPGASVKVSCKASGYTFTGYYMHWVRQAPGQGLEWMGWINPNSGGTNYAQKFQGRVTMTRDTSISTAYMELSRLRSDDTAVYYCARGNAWGAFDIWGRSTLVTVSSGGGGSGGGGSGGGGSQSVLTQPASVSGSPGQSITISCTGTSSDVGGYNYVSWYQQHPGKAPKLMIYEGSKRPSGVSNRFSGSKSGNTASLTVSGLQAEDEADYYCSSYTTRSTRVFGGGTKLTVLG
# B4: I080G07 (scFv)
# scFv: QVQLVQSGAEVKKPGASVKVSCKASGYTFTSYAMHWVRQAPGQRLEWMGWINAGNGNTKYSQKFQGRVTITRDTSASTAYMELSSLRSEDTAVYYCAREGPGYYYGMDVWGQGTMVTVSSGGGGSGGGGSGGGGSALETTLTQSPGTLSLSPGERATLSCRASQAIGSNYLAWYQQKPGQPPSLLIYGASSRATGIPDRFSASGSGTDFTLTISRLEPEDFAVYYCQQYGSSITFGQGTRLEIKR
# B5: I079F06 (scFv)
# scFv: QVQLVESGGGLVQPGGSLRLSCAASGFTFSSYWMSWVRQAPGKGLEWVANIKQDGSEKYYVDSVKGRFTISRDNAKNSLYLQMNSLRAEDTAVYYCARDNLHAAFDIWGRGTLVTVSGGGGGSGGGGSGGGGSDIQMTQSPSTLSASIGDRVTITCRASEGIYHWLAWYQQKPGKAPKLLIYKASSLASGAPSRFSGSGSGTDFTLTISSLQPDDFATYYCQQYSNYPLTFGGGTKLEIKR
# B6: I079B05 (scFv)
# scFv: GVQLVESGGGLVKPGGSLRLSCATSGFRFSDYAMTWVRQAPGKGLEWVSSITGSGGGTHYAGSVRGRFTISRDNSKNTVYLQMNNLRPEDTAVYYCASFVLDYWGKGTLVTVSSGGGGSGGGGSGGGGSQSVLTQPASVSGSPGQSITISCTGTSSDVGGYNYVSWYQQHPGKAPKLMIYEGSKRPSGVSNRFSGSKSGNTASLTISGLQAEDEADYYCSSYTTRSTRVFGGGTKLTVLG
# B7: I079B12 (scFv)
# scFv: EVQLVQSRGGVVQPGRSLRLSCAASGLTFSSYGMHWVRQAPGKGLEWVAVISYDGRNKYYADSVKGRFTTSRDNSKNTLYLQMNSLRAEDTAVYYCAKWTSSGAFDIWGRGTLVTVSSGGGGSGGGGSGGGGSDIQMTQSPSTLSASIGDRVTITCRASEGIYHWLAWYQQKPGKAPKLLIYKASSLASGAPSRFSGSGSGTDFTLTISSLQPDDFATYYCHQYSNYPLTFGGGTKLEIKR
# B8: I082D07 (scFv)
# scFv: B7 scFv with H222Q
# B9: I080G09 (scFv)
# scFv: QVQLVQSGAEVKKPGASVRVSCKSSGYTFTNYGISWVRQAPGQGLEWMGWISNNNGKTYYAQKVQGRVTMTTDTSTSTDYMELRGLRSDDTAIYYCARDNGGGTIGFDYWGQGTLVTVSSGGGGSGGGGSGGGGSAQSVLTQPPSVSGAPGQRVTISCTGSSSNIGADYDVHWYQLLPGTAPKLLIYGNTNRPSGVPDRFSGSKSGTSASLTIAGLQAEDEADYYCQSYDSSLSGSVVFGGGTKLTVLG
# B10: I080D03 (scFv)
# scFv: B1 scFv with D92A
# B11: I080A03 (scFv)
# scFv: QVQLQQSGAELKQPGTSVKVSCKASGYSFSCYDVNWVRQAPGQGLEWMGRINPNSGNTHYAQKFQDRVTMTTDTSTSTAYMELNSLRPDDTAVYFCARVGIKAAAVDNFEYWGRGTTVTVSSGGGGSGGGGSGGGGSAQSVLTQPPSASGTPGQRVTITCSGSSSNIGDYYVNWYQQVSGTTPKLIIYRDDQRPSGVPDRFSGSKSGASASLAISGLRSEDEANYFCAAWDDSLREFAFGTGTKVTVLG
# B12: I083G03 (scFv)
# scFv: B1 scFv
# B13: I080G07 (scFv)
# scFv: B4 scFv
# B14: I084C04 (scFv)
# scFv: VQLVQSGAEVKKPGASVKVSCKASGYTFTSYGISWVRQAPGQGLEWMGWINPNSGGTNYAQKFQGRVTMTRDTSISTAYMELSRLRSDDTAVYYCARNLWGLDYWGKGTMVTVSSGGGGSGGGGSGGGGSSELTQDPAVSVALGQTVRITCQGDSLRSYYASWYQQKPGQAPVLVIYGKNNRPSGIPDRFSGSSSGNTASLTITGAQAEDEADYYCNSRDSSGNHVVFGGGTKLTVLG
# B15: I080E05 (scFv)
# scFv: EVQLVQSGAAVKKPGASVKVSCKASGYTFTTYYIHWVRQAPGQGLEWMGIINPVNGNTIYAQKFQGRVTMTRDTSTGTVNMELSSLRSEDTAVFYCVREGGGDAYDVAPYYFDYWGQGTLVTVSSGGGGSGGGGSGGGGSAQAVLTQPSSVSGAPGQRVTISCTGSSSNIGDGYDVHWYQQLPGTAPKLLIYGNSHRPSGVPDRFSGSKSDTSASLAITGLQVEDEADYFCHSYDSSVSGWIFGGGTKLTVLG
# B16: I083B12 (scFv)
# scFv: QVQLVQSGAEVKKPGASVKVSCKASEYTFYNHYMHWVRQAPGQGLEWMGFINPSGDAAWYAQKFQGRVTLTRDTSTRTVYMELSGLTSEDTAVYYCARESGAGGYYYDDYWGKGTLVTVSSGGGGSGGGGSGGGGSALSYVLTQPPSVSVAPGKTASIPCGGNNIGSKSVQWYLQKAGQAPILVVYDDSDRPSGIPERFSGSNSGNTATLTITRVEAGDEADYYCQVWDSSSDHWFFGGGTKLTVLG
# B17: I082G01 (scFv)
# scFv: QMQLVQSGAEVKKPGASVKVSCKASGYTFTSYYMHWVRQAPGQGLEWMGLVHPNDGSVNYAQKFKGRVTMTRDTSTSTVYMELSSLRSDDTAVYYCARDRGSGWPNWYFDLWGQGTLVTVSSGGGGSGGGGSGGGGSDIQMTQSPSTLSASIGDRVTITCRASEGIYHWLAWYQQKPGKAPKLLIYKASSLASGAPSRFSGSGSGTDFTLTISSLQPDDFATYYCQQYSNYPLTFGGGTKLEIKH
# B18: I082A05 (scFv)
# scFv: QVQLQQSGGGVVQPGRSLRLSCAASGFTYSSYAMHWVRQAPGKGLEWVAVISYDGSIKYYADSVKGRFTISRDNSKNTLYLQMNSLRAEDTAVYYCARDLDFDYWGKGTLVTVSSGGGGSGGGGSGGGGSQSVLTQPPSVSAAPGQKVTISCSGSTSNIGNNYVSWYQQHPGKAPKFMIYDVSKRPSGVSNRFSGSKSGNTASLTISGVQAEDEADYYCSSYTSASTVIFGGGTKLTVLG
# B19: I082B08 (scFv)
# scFv: QVQLVQSGAEVKKPGGSVKVSCKASAYTFTRYYMHWVRQAPGQGLEWMGIINPSGGRTSYAQKFQGRVTMTRDTSTSTVYMELSSLRSEDTAVYYCARDLGIAGTIYFDYWGKGTLVTVSSGGGGSGGGGSGGGGSQSVLTQPPSVSAAPGQKVTISCSGSTSNIGNNYVSWYQQHPGKAPKLMIYDVSKRPSGVPDRFSGSKSGNSASLDISGLQSEDEADYYCAAWDDSLSEFLFGTGTKLTVLG
# Molecular target: T1, HIS-tagged B Lymphocyte Stimulator (human, UniProt Q9Y275 71-285)
# T1 construct: Expressed in E. coli; also called HIS-B Lymphocyte Stimulator; histidine-tagged B Lymphocyte Stimulator; not shown: histidine tag from the pQE9 vector
# Test: BIAcore, periplasmic scFv over high density HIS-BLyS surface
# Procedure: (§1) All BIAcore analysis was performed on BIAcore 2000 machines, using the BIAcore 2000 control software and evaluated using the BIAevaluation 3.0 software. A high density His-tagged B Lymphocyte Stimulator surface (>1000 RU HIS-B Lymphocyte Stimulator coupled) was prepared in flow cell 2 by amine coupling to a CM5 chip. A new CM5 chip was inserted into the BIAcore and a sensorgram started over flow cell 2 with HBS buffer at a flow rate of 5 μl/min. The NHS and EDC solution were mixed 1:1 before injecting 30 μl over the CM5 surface. Fifty μl HIS-B Lymphocyte Stimulator (at 10 μg/ml in Sodium acetate buffer, pH4) was injected and allowed to couple to the surface. Thirty μl of ethanolamine-HCl solution was then injected to block free NHS esters. Prior to using the chip, 10 μl of 4M Guanidine hydrochloride in HBS was injected over the surface to strip the surface of non-covalently bound B Lymphocyte Stimulator. A blank surface (no HIS-B Lymphocyte Stimulator) was also prepared over flow cell 1 so that non-specific binding effects can be subtracted from the HIS-B Lymphocyte Stimulator binding curves.
# T1 sequence (Q9Y275 71-285): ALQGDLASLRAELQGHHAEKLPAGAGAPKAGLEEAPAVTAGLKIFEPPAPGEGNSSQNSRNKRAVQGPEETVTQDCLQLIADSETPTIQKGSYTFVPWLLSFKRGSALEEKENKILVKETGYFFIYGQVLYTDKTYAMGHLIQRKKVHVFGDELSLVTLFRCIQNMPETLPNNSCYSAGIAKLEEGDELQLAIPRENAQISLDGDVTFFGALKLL
# (§2) The 96-well plate containing periplasmic scFvs was secured inside the BIAcore. Two ml of 4M Guanidine hydrochloride in HBS was placed in a rack inside the BIAcore for regeneration of the HIS-B Lymphocyte Stimulator surface between samples. The sensorgram was run over flow cells 1 and 2 at a flow rate of […].
row,Binder,binding result
1,B1,binds
2,B2,binds
3,B3,binds
4,B4,binds

# Molecular target: T2, HIS-tagged B Lymphocyte Stimulator (human, UniProt Q9Y275 71-285)
# T2 construct: Expressed in E. coli from pQE9 and purified; also called histidine-tagged B Lymphocyte Stimulator; HIS-B Lymphocyte Stimulator; not shown: histidine tag of the pQE9 vector
# Test: BIAcore, periplasmic scFv on high density HIS-BLyS surface
# Procedure: as §1, §2
# T2 sequence (Q9Y275 71-285): as above
row,Binder,binding result
1,B5,binds
2,B6,binds
3,B7,binds
4,B8,binds
5,B9,binds
6,B10,binds
7,B11,binds
8,B12,binds
9,B13,binds
10,B14,binds
11,B15,binds
12,B16,binds
13,B17,binds
14,B18,binds
15,B19,binds
